Measurements published in IntAct's records for PubMed 23523103.

Molecular target: hsp7c_human HSPA8 (UniProt P11142)

## L-lactate dehydrogenase A chain (Homo sapiens) (from UniProt P00338) K5Q
  effect of a mutation on the interaction: increasing interaction
